Laboratory results as given in patent US20140099668A1.

Target: ERK (extracellular-signal-regulated kinase; mitogen-activated protein kinase)
Test: cell-based or functional assay

ERK activity in the endoplasmic reticulum (phosphorylation of myelin basic protein), Cos7 cells with M1-RasV12: 60% | decrease in transformed foci formation, NIH3T3 cells transfected with H-RasV12: 50%
B1: ERK decoy protein (ER localization signal, a c-Myc epitope tag, and the ERK polyligand of SEQ ID NO:1) (designed binder, part only; not given: ER signal and c-Myc tag, not shown: small tags and cut ends)
chain, part: MPKKKPTPIQLNPAAKGRKPRDLELPAAAATGPLAPGPFGAGAYSPTAPTYSPTAPKKKGGGGAPRAPGGRRAGAGRRPRAPAKLSFFFPS
